{"source": "paper PMC11190491", "target": "peptide on cattle MR1 (cattle)", "experiment": "data from (80); method not given; cattle MR1 without riboflavin-based antigen"}
{"substance": "A-F7 MAIT TCR", "values": [{"measurement": "Kd", "value": 30, "unit": "µM"}]}
